Changes are numbered by the printed parent chain. Blank lines part the entries; values can stand above or below the binder they belong to.
Key:
[1] = biological target: T1, human PD-1 expressed on GS-J2/PD-1 cells (Genscript) (human, UniProt Q15116 25-288); assay: cell-based binding FACS on GS-J2/PD-1 cells expressing human PD-1 (MFI); unit from the axis 'Con of mAb, nM.'
T1 construct: whole, on cells; also called cell-surface human PD-1
Protocol: The mouse anti-PD-1 antibodies of the disclosure were also tested for their binding activities to human PD-1s expressed on cell surface by flow cytometry (FACS), using GS-J2/PD-1 cell line (Genscript) expressing cell-surface human PD-1s.
In specific, the 293F-mouse PD-1 cells and GS-J2/PD-1 cells were respectively harvested from cell culture flasks, washed twice and re-suspended in PBS containing 2% v/v Fetal Bovine Serum (FACS buffer). Then, 2×10⁵ cells per well were incubated in 96 well-plates with 100 μl of the anti-PD1 antibodies or controls at various concentrations for 40 minutes on ice. […] Following an incubation of 40 minutes at 4° C. in dark, cells were washed three times and re-suspended in FACS buffer. Fluorescence was measured using a Becton Dickinson FACS Canto II-HTS equipment and plotted against antibody concentrations. Data was analyzed using GraphPad Prism software and EC₅₀ values were reported.

[2] = biological target: T2, recombinant human PD-1-his protein (Cat#:10377-H08H, Sino biological Inc.) (human, UniProt Q15116 25-167); assay: SPR (Biacore T200), antibody captured, PD-1-his in flow, 1:1 fit
T2 construct: Bought protein used as analyte in the Biacore tests; not shown: his tag
From the text: (§1) The purified anti-PD-1 mouse monoclonal antibodies (mAbs) generated in Example 1 were characterized for binding affinities and binding kinetics by Biacore T200 system (GE healthcare, Pittsburgh, Pa., USA).
(§2) Briefly, Goat-Anti-Mouse IgG (Cat#: BR100838, GE healthcare, Mouse Antibody Capture Kit) was covalently linked to a CMS chip (carboxy methyl dextran coated chip, Cat#: BR100530, GE healthcare) via primary amines using a standard amine coupling kit (GE healthcare, Pittsburgh, Pa., USA) provided by Biacore. Un-reacted moieties on the biosensor surface were blocked with ethanolamine. A Protein G chip (Cat#:29-1793-15, GE healthcare) was used for the positive controls affinity determination. The anti-PD-1 antibodies of the disclosure and the two positive controls at the concentration of 2 μg/ml were respectively flowed onto the chip at a flow rate of 10 μl/min. Then, serially diluted recombinant human PD-1-his protein (Cat#:10377-H08H, Sino biological Inc.), cynomolgus PD-1-his protein (Cat#:PD1-05223, Acro biosystems Inc.) and recombinant mouse PD-1-his protein (Cat#:50124-M08H, Sino Biological Inc), 2-fold dilution in HBS-EP⁺ buffer (provided by Biacore) starting at 200 nM, were respecitvely flowed onto the chip at a flow rate of 30 μl/min. The antigen-antibody association kinetics was followed for 2 minutes and the dissociation kinetics was followed for 10 minutes. The association and dissociation curves were fit to a 1:1 Langmuir binding model using Biacore evaluation software.

[3] = biological target: T3, cynomolgus PD-1-his protein (Cat#:PD1-05223, Acro biosystems Inc.) (cynomolgus, UniProt B0LAJ3 25-170); assay: as above
T3 construct: Bought protein used in Biacore and indirect ELISA; also called monkey PD-1; Cyno PD-1
From the text: as §1, §2

[4] = biological target: T4, in house made human PD-1-Fc protein (human, biotin-labeled (sites not given)); assay: cell-based blocking FACS: antibody pre-mixed with biotin-labeled human PD-1-Fc, added to GS-C2/PD-L1 cells expressing human PD-L1 (blocked ligand); unit from the axis 'Con of mAb, nM.'
T4 construct: also called biotin-labeled human PD-1-Fc
Protocol: GS-C2/PDL1 cells were harvested from cell culture flasks at the log phase, washed twice and re-suspended in PBS containing 2% v/v Fetal Bovine Serum (FACS buffer). GS-C2/PD-L1 cells, 0.6×10⁵ cells per welt, were incubated in 96 well-plates with 100 the antibody/PD1-Fc mixture for 40 minutes at 4° C. Cells were washed twice with FACS buffer, added with 100 R-Phycoerythrin Streptavidin (1:500 dilution in FACS buffer, Cat#:016-110-084, Jackson Immunoresearch), and incubated for 40 minutes at 4° C. in dark. Cells were washed twice and re-suspended in FACS buffer. Fluorescence was measured using a Becton Dickinson FACS Canto II-HTS equipment. Data was analyzed using Graphpad Prism software and IC₅₀ values were reported.

[5] = biological target: T4, in house made human PD-1-Fc protein; assay: capture ELISA: antibody captured on anti-mouse IgG F(ab')2 coated plate, biotin-labeled human PD-1-Fc detected with streptavidin-HRP; unit from the axis 'Con of mAb, nM.'
Protocol: Briefly, 96-well micro plates were coated with 100 μl 2 μg/ml AffiniPure Goat Anti-Mouse IgG F(ab′)₂ fragment specific (Cat#:115-005-072, Jackson lmmunoResearch) or Goat-anti-human IgG (Cat#:109-005-097, Jackson ImmunoResearch, for the positive control and negative control) in PBS overnight at 4° C. Plates were washed once with wash buffer (PBST, PBS+0.05% Tween-20) and then blocked with 200 μl/well blocking buffer (5% w/v non-fatty milk in PBST) for 2 hours at 37° C. […] After a final wash, plates were incubated with 100 μl/well TMB (Cat#:TMB-S-002, Innoreagents) at room temperature.
The reaction was stopped 3-10 minutes later with 50 μl/well 1M H₂SO₄, and the absorbance was read on a microplate reader using dual wavelength mode with 450 nm for TMB and 630 nm as the reference wavelength. The OD (450-630) values were plotted against antibody concentrations. Data was analyzed using GraphPad Prism software and EC₅₀ values were reported.

[6] = biological target: T4, in house made human PD-1-Fc protein; assay: competitive ELISA: antibody pre-mixed with biotin-labeled human PD-1-Fc, added to coated Pembrolizumab (competitor); unit from the axis 'Con of mAb, nM.'
Protocol: ELISA plates were washed once with wash buffer (PBST, PBS+0.05% Tween-20) and then blocked with 200 μl/well blocking buffer (5% w/v non-fatty milk in PBST) for 2 hours at 37° C. […] After incubation at 37° C. for 40 minutes, plates were washed using wash buffer, added and incubated with 100 μl/well Peroxidase Streptavidin for 40 minutes at 37° C. Plates were washed again using wash buffer. Finally, TMB was added and the reaction was stopped using 1M H₂SO₄. The absorbance was read on a microplate reader using dual wavelength mode with 450 nm for TMB and 630 nm as the reference wavelength, and the OD (450-630) values were plotted against antibody concentrations. Data was analyzed using Graphpad Prism software and IC₅₀ values were reported.

EC50 [1]: 230 pM
Kd [2]: 236 pM
koff [2]: 8.56e-05 s⁻¹
kon [2]: 363000 M⁻¹ s⁻¹
Kd [3]: 125 pM
koff [3]: 4.32e-05 s⁻¹
kon [3]: 345000 M⁻¹ s⁻¹
IC50 [4]: 496 pM
EC50 [5]: 37.9 pM
IC50 [6]: 62.9 pM
B1: mouse anti-PD-1 monoclonal antibody E1G5D1H1 (antibody, V domains shown)
VH: EVQLVESGGGLVKPGGSLKLSCAASGFTFSDFYMYWVRQTPEKRLEWVATISNSGTQTYYLDSVKGRFTISRDNAKNNLYLQMSSLKSEDTAMYYCARDYYRYDSWYFDVWGAGTTVTVSS
VL: DIVLTQSPASLAVSQGQRATISCRASESVDFYGTSLMQWFQLKPGQPPKLLIYAASNVESGVPARFSGSGSGTNFSLNIHPVEEDDIAMYFCQQSRKVPWTFGGGTNLEIK
notes: Hybridoma-derived mouse mAb; also called EIG5D1H1; E1G5DIH1

EC50 [1]: 370 pM
Kd [2]: 1100 pM
koff [2]: 0.00022 s⁻¹
kon [2]: 199000 M⁻¹ s⁻¹
Kd [3]: 1130 pM
koff [3]: 0.000119 s⁻¹
kon [3]: 106000 M⁻¹ s⁻¹
IC50 [4]: 782 pM
EC50 [5]: 55.4 pM
IC50 [6]: 98.2 pM
B2: mouse anti-PD-1 monoclonal antibody E1A9C8A7 (antibody, V domains shown)
VH: QVQLQQSGAEVVRPGVSVRISCKGSGYTFSDYVMHWMKQSHGESLEWIGVISTYHIPAVYNQKFKGKATMTVDKSSSTVYLELARLTSEDSAIYYCAREVYGDSYYFDVWGAGTTVTVSS
VL: DVLMTQIPLSLPVSLGDQVSISCRSSQSIVHSNGNTYLEWYLQKPGQSPKLLIYKVSNRFSGVPDRFSGSGSGTDFTLKISRVEAEDLGVYYCFQGSHVPYTFGGGTKLEIK
notes: Hybridoma-derived mouse mAb purified on Protein A; also called Mouse E1A9C8A7

EC50 [1]: 483 pM
Kd [2]: 906 pM
koff [2]: 0.00022 s⁻¹
kon [2]: 243000 M⁻¹ s⁻¹
Kd [3]: 1160 pM
koff [3]: 0.000161 s⁻¹
kon [3]: 138000 M⁻¹ s⁻¹
IC50 [4]: 484 pM
EC50 [5]: 64.7 pM
IC50 [6]: 162 pM
B3: mouse anti-PD-1 monoclonal antibody E2G4E10B7 (antibody, V domains shown)
VH: QVQLQQSGAELVRPGVSVKISCKGSGYTFTDYVMHWVRQSHAKSLEWIGVISTHFGDGVYNQKFKGKATMTVDKSSSTAYMELARLTSEDSAIYYCAREVYGDSWYFDVWGAGTTVTVSS
VL: B2 VL with I7T, V19A, I29L, N33D, V83L
notes: Hybridoma-derived mouse mAb; also called Mouse E2G4E10B7
